Our source for the percent of the protein in the 19.5 S species, molar ratio to tubulin 0.43:1 and percent of the protein in the 28.5 S species, molar ratio to tubulin 0.43:1 values is PMC2148115.

The target of this test is Tubulin (αβ-tubulin heterodimer) from pig brain (pig) (UniProt P02550). Briefly: AUC.

Regarding “MAP2C (from UniProt P15146-3 1-467) (natural protein)”, the percent of the protein in the 19.5 S species, molar ratio to tubulin 0.43:1 was 21% and the percent of the protein in the 28.5 S species, molar ratio to tubulin 0.43:1 came to 26%.
